The source of these data is the supplement of paper PMC5998384.

Data set [1] relates to HeLa Kyoto. The experiment in a line: thermal stability score vs G1/S (z-score of summed log2 fold changes over temperatures); higher = more thermally stable than in G1/S.
In data set [2] the test system is HeLa Kyoto. The experiment in a line: melting temperature (median over replicates), in situ; higher = more thermally stable.
In data set [3] the test system is HeLa Kyoto. Description: solubility in G1/S (NP-40 vs SDS abundance) (log2 ratio); higher = more soluble. Conditions: cell cycle stage: G1/S.
Data set [4] concerns HeLa Kyoto. The experiment in a line: solubility change mitosis vs G1/S (difference of NP-40 vs SDS log2 ratios) (log2 ratio difference); higher = more soluble in mitosis.
Where [5] appears, read: cell cycle stage: early G1 (4.5 h after nocodazole release).
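Wherever melting temperature (median over replicates), in situ is given: HeLa Kyoto cells synchronized by double thymidine or nocodazole block, proteins quantified by TMT10plex mass spectrometry, three independent biological replicates.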
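Wherever solubility change mitosis vs G1/S (difference of NP-40 vs SDS log2 ratios) is given: synchronized HeLa Kyoto cells (double thymidine block for G1/S, nocodazole release for mitosis), protein amounts in NP-40 versus SDS lysates quantified by mass spectrometry, three biological replicates.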
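Wherever solubility in G1/S (NP-40 vs SDS abundance) is given: HeLa Kyoto cells arrested at G1/S by double thymidine block, proteins quantified by TMT10plex mass spectrometry in mild NP-40 versus SDS extracts, three biological replicates.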
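Wherever thermal stability score vs G1/S (z-score of summed log2 fold changes over temperatures) is given: synchronized HeLa Kyoto cells, proteins quantified by TMT10plex mass spectrometry, three biological replicates, mitosis taken 0.5 h after nocodazole release, G1/S directly after double thymidine block.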

As for “MAGIIKKQILKHLSRFTKNLSPDKINLSTLKGEGQLTNLELDEEVLQNVLELPTWLAITRVYCNRASIRIQWTKLKTHPICLCLDKVEVEMKTCEDPRPPNGQSPIALASGQSEYGFAEKVVEGMFIIVNSITIKIHSKAFHASFELWQLQGYSVNPNWQQSDLRLTRITDPCRGEVLTFKEITWQTLRIEADATDNGDQDPVTTPLRLITNQGRIQIALKRRTKDCNVISSKLMFLLDDLLWVLTDSQLKAMMKYAESLSEAMEKSAHQRKSLAPEPVQITPPAPSAQQSWAQAFGGSQGNSNSSSSRLSQYFEKFDVKESSYHLLISRLDLHICDDSQSREPGVSANRLMGGAMQLTFRKMAFDYYPFHWAGDSCKHWVRHCEAMETRGQWAQKLVMEFQSKMEKWHEETGLKPPWHLGVDSLFRRKADSLSSPRKNPLERSPSQGRQPAFQPPAWNRLRSSCMVVRVDDLDIHQVSTAGQPSKKPSTLLSCSRKLHNLPTQVSAIHIEFTEYYFPDNQELPVPCPNLYIQLNGLTFTMDPVSLLWGNLFCLDLYRSLEQFKAIYKLEDSSQKDEHLDIRLDAFWLKVSFPLEKRERAELHRPQALVFSASGMIATNTRHAPHCSCSDLQSLFRGFAAAEFFHSNYDHFPKVPGGFSLLHMLFLHHAFQMDSCLPQPNTLPPQRPKASWDLWSVHFTQISLDFEGTENFKGHTLNFVAPFPLSIWACLPLRWQQAQARKLLLASEGRLKPSASFGSPVQSEALAPDSMSHPRSKTEHDLKSLSGLTEVMEILKEGSSGMDNKGPLTELEDVADVHMLVHSPAHVRVRLDHYQYLALLRLKEVLQRLQEQLTKDTESMTGSPLQNQTACIGVLFPSAEVALLMHPAPGAVDADSAGSDSTSLVDSELSPSEDRELKSDASSDQGPASPEKVLEESSIENQDVSQERPHSNGELQDSGPLAQQLAGKGHEAVESLQAKKLSRTQASSSPAALKPPAGRETAVNGQGELIPLKNIEGELSSAIHMTKDATKEALHATMDLTKEAVSLTKDAFSLGRDRMTSTMHKMLSLPPAKEPMAKTDEGVAAPVSGGAARLRFFSMKRTVSQQSFDGVSLDSSGPEDRISVDSDGSDSFVMLLESESGPESVPPGSLSNVSDNAGVQGSPLVNNYGQGSPAANSSVSPSGEDLIFHPVSVLVLKVNEVSFGIEVRGEDLTVALQAEELTLQQLGTVGLWQFLHGQCPGTCFQESSTLKTGHIRPAVGLRFEVGPGAAVHSPLASQNGFLHLLLHGCDLELLTSVLSGLGPFLEDEEIPVVVPMQIELLNSSITLKDDIPPIYPTSPGPIPITLAMEHVVLKRSDDGVFHIGAAAQDKPSAEVLKSEKRQPPKEQVFLVPTGEVFEQQVKELPILQKELIETKQALANANQDKEKLLQEIRKYNPFFEL [UHRF1BP1]”, the thermal stability score in the data set with HeLa Kyoto [1] (setting [5]) was -1.63; in the data set on HeLa Kyoto [1] (cell cycle stage: mitosis) it was -1.87. Further, the figures for the melting temperature in the data set on HeLa Kyoto [2] (cell cycle stage: G1/S) and in the data set on HeLa Kyoto [2] (cell cycle stage: mitosis) were 54.1 °C and 53.5 °C, respectively. Moreover, the “solubility in G1/S (log2)” value in the data set with HeLa Kyoto [3] was -0.0773. Moreover, the “solubility change mitosis (log2)” value in the data set on HeLa Kyoto [4] was -0.154.

“MTGQGQSASGSSAWSTVFRHVRYENLIAGVSGGVLSNLALHPLDLVKIRFAVSDGLELRPKYNGILHCLTTIWKLDGLRGLYQGVTPNIWGAGLSWGLYFFFYNAIKSYKTEGRAERLEATEYLVSAAEAGAMTLCITNPLWVTKTRLMLQYDAVVNSPHRQYKGMFDTLVKIYKYEGVRGLYKGFVPGLFGTSHGALQFMAYELLKLKYNQHINRLPEAQLSTVEYISVAALSKIFAVAATYPYQVVRARLQDQHMFYSGVIDVITKTWRKEGVGGFYKGIAPNLIRVTPACCITFVVYENVSHFLLDLREKRK [SLC25A32]”: the thermal stability score in the data set on HeLa Kyoto [1] (setting [5]) is -0.577; in the data set with HeLa Kyoto [1] (cell cycle stage: mitosis), 0.155. The melting temperature in the data set on HeLa Kyoto [2] (cell cycle stage: G1/S) turned out to be 56.8 °C; with HeLa Kyoto [2] (cell cycle stage: mitosis), 56.7 °C. In the data set with HeLa Kyoto [3], the “solubility in G1/S (log2)” value is -0.199. Moreover, the “solubility change mitosis (log2)” value in the data set on HeLa Kyoto [4] is -0.12.

For “MKKKTVCTLNMGDKKYEDMEGEENGDNTISTGLLYSEADRCPICLNCLLEKEVGFPESCNHVFCMTCILKWAETLASCPIDRKPFQAVFKFSALEGYVKVQVKKQLRETKDKKNENSFEKQVSCHENSKSCIRRKAIVREDLLSAKVCDLKWIHRNSLYSETGGKKNAAIKINKPQRSNWSTNQCFRNFFSNMFSSVSHSGESSFTYRAYCTEFIEASEISALIRQKRHELELSWFPDTLPGIGRIGFIPWNVETEVLPLISSVLPRTIFPTSTISFEHFGTSCKGYALAHTQEGEEKKQTSGTSNTRGSRRKPAMTTPTRRSTRNTRAETASQSQRSPISDNSGCDAPGNSNPSLSVPSSAESEKQTRQAPKRKSVRRGRKPPLLKKKLRSSVAAPEKSSSNDSVDEETAESDTSPVLEKEHQPDVDSSNICTVQTHVENQSANCLKSCNEQIEESEKHTANYDTEERVGSSSSESCAQDLPVLVGEEGEVKKLENTGIEANVLCLESEISENILEKGGDPLEKQDQISGLSQSEVKTDVCTVHLPNDFPTCLTSESKVYQPVSCPLSDLSENVESVVNEEKITESSLVEITEHKDFTLKTEELIESPKLESSEGEIIQTVDRQSVKSPEVQLLGHVETEDVEIIATCDTFGNEDFNNIQDSENNLLKNNLLNTKLEKSLEEKNESLTEHPRSTELPKTHIEQIQKHFSEDNNEMIPMECDSFCSDQNESEVEPSVNADLKQMNENSVTHCSENNMPSSDLADEKVETVSQPSESPKDTIDKTKKPRTRRSRFHSPSTTWSPNKDTPQEKKRPQSPSPRRETGKESRKSQSPSPKNESARGRKKSRSQSPKKDIARERRQSQSRSPKRDTTRESRRSESLSPRRETSRENKRSQPRVKDSSPGEKSRSQSRERESDRDGQRRERERRTRKWSRSRSHSRSPSRCRTKSKSSSFGRIDRDSYSPRWKGRWANDGWRCPRGNDRYRKNDPEKQNENTRKEKNDIHLDADDPNSADKHRNDCPNWITEKINSGPDPRTRNPEKLKESHWEENRNENSGNSWNKNFGSGWVSNRGRGRGNRGRGTYRSSFAYKDQNENRWQNRKPLSGNSNSSGSESFKFVEQQSYKRKSEQEFSFDTPADRSGWTSASSWAVRKTLPADVQNYYSRRGRNSSGPQSGWMKQEEETSGQDSSLKDQTNQQVDGSQLPINMMQPQMNVMQQQMNAQHQPMNIFPYPVGVHAPLMNIQRNPFNIHPQLPLHLHTGVPLMQVATPTSVSQGLPPPPPPPPPSQQVNYIASQPDGKQLQGIPSSSHVSNNMSTPVLPAPTAAPGNTGMVQGPSSGNTSSSSHSKASNAAVKLAESKVSVAVEASADSSKTDKKLQIQEKAAQEVKLAIKPFYQNKDITKEEYKEIVRKAVDKVCHSKSGEVNSTKVANLVKAYVDKYKYSRKGSQKKTLEEPVSTEKNIG [SCAF11]”, the thermal stability score was -1.41 in the data set with HeLa Kyoto [1] (setting [5]) and 2.84 in the data set with HeLa Kyoto [1] (cell cycle stage: mitosis). In addition, the melting temperature stood at 52.9 °C with HeLa Kyoto [2] (cell cycle stage: G1/S) and 53.5 °C in the data set on HeLa Kyoto [2] (cell cycle stage: mitosis). In addition, the “solubility in G1/S (log2)” value with HeLa Kyoto [3] is -0.87. In the data set with HeLa Kyoto [4], the “solubility change mitosis (log2)” value is 0.664.

As for “MASTDYSTYSQAAAQQGYSAYTAQPTQGYAQTTQAYGQQSYGTYGQPTDVSYTQAQTTATYGQTAYATSYGQPPTGYTTPTAPQAYSQPVQGYGTGAYDTTTATVTTTQASYAAQSAYGTQPAYPAYGQQPAATAPTRPQDGNKPTETSQPQSSTGGYNQPSLGYGQSNYSYPQVPGSYPMQPVTAPPSYPPTSYSSTQPTSYDQSSYSQQNTYGQPSSYGQQSSYGQQSSYGQQPPTSYPPQTGSYSQAPSQYSQQSSSYGQQSSFRQDHPSSMGVYGQESGGFSGPGENRSMSGPDNRGRGRGGFDRGGMSRGGRGGGRGGMGSAGERGGFNKPGGPMDEGPDLDLGPPVDPDEDSDNSAIYVQGLNDSVTLDDLADFFKQCGVVKMNKRTGQPMIHIYLDKETGKPKGDATVSYEDPPTAKAAVEWFDGKDFQGSKLKVSLARKKPPMNSMRGGLPPREGRGMPPPLRGGPGGPGGPGGPMGRMGGRGGDRGGFPPRGPRGSRGNPSGGGNVQHRAGDWQCPNPGCGNQNFAWRTECNQCKAPKPEGFLPPPFPPPGGDRGRGGPGGMRGGRGGLMDRGGPGGMFRGGRGGDRGGFRGGRGMDRGGFGGGRRGGPGGPPGPLMEQMGGRRGGRGGPGKMDKGEHRQERRDRPY [EWSR1]”, the thermal stability score was found to be 0.0358 with HeLa Kyoto [1] (setting [5]) and 0.453 in the data set on HeLa Kyoto [1] (cell cycle stage: mitosis). The melting temperature in the data set on HeLa Kyoto [2] (cell cycle stage: G1/S) is 55.6 °C; in the data set on HeLa Kyoto [2] (cell cycle stage: mitosis), 55.8 °C. In the data set with HeLa Kyoto [3], the “solubility in G1/S (log2)” value turned out to be 0.0308. Besides, the “solubility change mitosis (log2)” value with HeLa Kyoto [4] stood at 0.157.
